Molecular target: TF-LYAR-FL (FLAG) (human) (UniProt Q9NX58)
Test: EMSA
Conditions: EMSA: 10 mM Tris-HCl pH 7.4, 50 mM KCl, 1 mM DTT, 2.5 % (further components not shown in material), 20 µl, 30 min, room temperature

Sequence: GGTATATCTTTCGCTCCGAGTCGGCATTTTGGGCCGCCGGGTTATTGCTGACACGCTGTCCTCTGGCGACCTGTCGTC (double strand) [H0 rDNA promoter probe (H0-BT)]
- binding: no binding
